Assay results from US20220251184A1 (Regeneron, published 2022).
Residue numbers refer to the chain shown, from its start. Each block holds one binder with its values, some of them ahead of it.

How the values were obtained:
[1] = molecular target: T1, human BMP6 (R&D Systems, Cat #507-BP) (human, UniProt P22004 375-513, limits assumed); experiment: competition ELISA, antibody titrated against 2.5 nM biot-hBMP6, plate-coated hHJV-hFc as competitor
T1 construct: Bought protein (R&D Systems 507-BP or 507-BP/CF); also called hBMP6; hBMP-6
T1 sequence: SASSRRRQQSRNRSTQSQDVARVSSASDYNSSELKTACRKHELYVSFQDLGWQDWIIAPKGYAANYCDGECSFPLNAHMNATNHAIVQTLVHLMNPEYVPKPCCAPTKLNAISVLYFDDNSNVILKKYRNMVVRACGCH
Method: Experiments were carried out using the following procedure. Receptors were coated in Hank's Balanced Salt Solution (HBSS) separately at a concentration of 5 μg/mL for hHJV-hFc and […] for hActR2a-hFc on a 96-well microtiter plate overnight at 4° C. […] In other microtiter plates, a constant amount of 2.5 nM of biot-BMP6 (for HJV capture) or 1.5 nM biot-BMP6 (for ActR2a capture) protein was titrated with anti-BMP6 antibodies or isotype control antibodies ranging from 5.1 pM to 300 nM in serial dilution in HBSS with 1.0% BSA and […] heparin. These antibody-protein complexes, after a one-hour incubation, were transferred to the microtiter plate coated with hHJV-hFc or hActR2a-hFc. After two hours of incubation at room temperature, the wells were washed, and plate-bound biot-BMP6 was detected with neutravidin conjugated with horseradish peroxidase (HRP) (Thermo Scientific, Cat #31030). The plates were then developed using TMB substrate solution (BD Biosciences, Cat #555214) according to manufacturer's recommendation and absorbance at 450 nm was measured on a Victor X5 plate reader.
Data analysis was performed using a sigmoidal dose-response model within Prism™ software (GraphPad). […]

[2] = molecular target: T1, human BMP6 (R&D Systems, Cat #507-BP); experiment: SPR (MASS-1), mAb captured on anti-human Fc, hBMP6 in solution, 37 C; no dissociation observed, kd manually fixed at 1.00E-05; 37 C; no dissociation observed, kd fixed at 1.00E-05
Method: Equilibrium dissociation constants (KD values) for human and mouse BMP6 binding to purified anti-BMP6 monoclonal antibodies of this invention were determined using a real-time surface plasmon resonance (SPR) biosensor instrument, MASS-1. All binding studies were performed in 10 mM HEPES, 150 mM NaCl, 3 mM EDTA, 1 μg/mL Heparin, and 0.05% v/v Surfactant Tween-20, pH 7.4 (HBS-EHT) running buffer at 25° C. and 37° C. The HCA sensor surface was first derivatized by amine coupling the monoclonal mouse anti-human Fc antibody (GE, #BR100839) and anti-BMP6 monoclonal antibodies were individually captured. Different concentrations of human BMP6 reagents (hBMP6; R&D Systems, Cat #507-BP; 60 nM-0.94 nM; 4-fold serial dilution) or mouse BMP6 (mBMP6; R&D Systems, Cat #6325-BM; 60 nM and 15 nM) prepared in HBS-EHT running buffer were injected over the captured anti-BMP6 monoclonal antibody for 4 minutes at a flow rate of 30 μL/minute, while the dissociation of BMP6 reagent bound to captured anti-BMP6 monoclonal antibody was monitored for 10 minutes in HBS-EHT running buffer. Kinetic association (kₐ) and dissociation (kd) rate constants were determined by fitting the real-time binding sensorgrams to a 1:1 binding model with mass transport limitation using Scrubber 2.0c software. […]

[3] = molecular target: T1, human BMP6 (R&D Systems, Cat #507-BP); experiment: competition ELISA, antibody titrated against 2.5 nM biot-hBMP6, plate-coated hHJV-hFc as competitor; value below the lower limit of quantitation of 1.25E-09 M
Method: These antibody-protein complexes, after a one-hour incubation, were transferred to the microtiter plate coated with hHJV-hFc or hActR2a-hFc. After two hours of incubation at room temperature, the wells were washed, and plate-bound biot-BMP6 was detected with neutravidin conjugated with horseradish peroxidase (HRP) (Thermo Scientific, Cat #31030). The plates were then developed using TMB substrate solution (BD Biosciences, Cat #555214) according to manufacturer's recommendation and absorbance at 450 nm was measured on a Victor X5 plate reader.
Data analysis was performed using a sigmoidal dose-response model within Prism™ software (GraphPad). […] Percent blockade at indicated concentration of the antibody tested was calculated as an indicator of the ability of the antibodies to block the binding of 2.5 nM or 1.5 nM of biot-BMP6 to hHJV-hFc or hActR2a-hFc on the plate, respectively. In the calculation, binding signal of the sample of the constant biot-BMP6 without the presence of the antibody for each assay was referenced as 100% binding or 0% blocking; and the baseline signal of the sample of buffer only without the presence of biot-BMP6 was referenced as 0% binding or 100% blocking.
The isotype control antibody blocked <30% at concentrations up to 300 nM antibody, as expected.

IC50 [1]: 1.61 nM
koff [2]: ≤ 1e-05 s⁻¹
B1: H4H17871P (antibody, V domains shown)
VH: EVQLVESGGGLVQPGGSLRLSCAASGFTFNNYAMSWVRQAPGKGLEWVSAISGSGDSTYYADSVKGRFTISRDNSKNTLYLQMNSLRAEDTAVYYCAKRSRSSPFDPWGQGTLVTVSS
VL: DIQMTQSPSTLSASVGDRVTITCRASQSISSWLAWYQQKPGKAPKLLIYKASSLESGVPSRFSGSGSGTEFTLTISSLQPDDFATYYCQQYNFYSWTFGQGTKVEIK
notes: Fully human antibody; also called anti-BMP6 monoclonal antibody; BMP6 antibody of the invention

IC50 [3]: 0.522 nM
B2: H4H17855P (antibody, V domains shown)
VH: B1 VH with N30S, N31S, D56G, S57R, A61T, I70M, S100P, R101Y, S102N
VL: EIVLTQSPGTLSLSPGEGATLSCRASQSVSSSYLAWYQQKPGQAPRLLIYGASSRATGIPDRFSGSGSGTDFTLTISRLEPEDFVVYYCQHFGGTPFTFGGGTKVEIK
notes: as for B1
